Measurements: US20060234285A1 (Human Genome Sciences, published 2006)

T1: TNF-gamma-beta, full length, on transfected cells (human, UniProt O95150 1-251)
T1 construct: whole, on cells; also called TL1β
T1 sequence (looked up): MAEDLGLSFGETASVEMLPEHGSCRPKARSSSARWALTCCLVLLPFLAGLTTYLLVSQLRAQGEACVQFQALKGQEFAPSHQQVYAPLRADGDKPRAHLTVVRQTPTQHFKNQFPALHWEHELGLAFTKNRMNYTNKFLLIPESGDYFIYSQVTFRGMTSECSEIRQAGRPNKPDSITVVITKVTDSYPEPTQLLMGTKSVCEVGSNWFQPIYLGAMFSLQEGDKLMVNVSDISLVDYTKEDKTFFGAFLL

T2: TNFR-6 alpha-(His) (human, UniProt O95407 30-300)
T2 construct: also called TNFR-6α; DcR3
T2 sequence: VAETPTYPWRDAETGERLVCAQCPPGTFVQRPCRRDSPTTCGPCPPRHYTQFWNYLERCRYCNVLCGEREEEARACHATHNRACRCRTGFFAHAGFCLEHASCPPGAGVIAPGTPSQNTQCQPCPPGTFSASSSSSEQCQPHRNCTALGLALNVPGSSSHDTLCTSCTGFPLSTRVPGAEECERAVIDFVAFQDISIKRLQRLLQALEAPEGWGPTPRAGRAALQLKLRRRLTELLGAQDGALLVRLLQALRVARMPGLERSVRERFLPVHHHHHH

T3: Full-length human TR6 (without Fc) (human, UniProt O95407 30-300)
T3 construct: Full-length cDNA expressed in Sf9 cells with the natural leader; also called TR6 non-Fc; TR6-non-Fc
T3 sequence: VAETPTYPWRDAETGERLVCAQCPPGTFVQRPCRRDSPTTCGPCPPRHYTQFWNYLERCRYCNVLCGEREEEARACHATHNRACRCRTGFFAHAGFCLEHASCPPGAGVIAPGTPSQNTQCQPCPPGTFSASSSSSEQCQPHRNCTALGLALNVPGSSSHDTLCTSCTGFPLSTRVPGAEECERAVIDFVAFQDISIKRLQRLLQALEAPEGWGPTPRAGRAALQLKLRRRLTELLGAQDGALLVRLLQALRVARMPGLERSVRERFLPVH

T4: FLAG-tagged soluble form of TNF-gamma-beta (aa 72-251) (human, UniProt O95150 72-251)
T4 construct: also called FLAG-TL1β; FLAG-TNF-gamma-beta
T4 sequence (looked up): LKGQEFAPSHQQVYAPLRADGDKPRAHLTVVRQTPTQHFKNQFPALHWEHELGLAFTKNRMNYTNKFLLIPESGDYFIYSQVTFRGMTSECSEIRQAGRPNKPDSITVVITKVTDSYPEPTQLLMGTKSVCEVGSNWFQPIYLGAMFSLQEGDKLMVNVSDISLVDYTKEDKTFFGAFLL

T5: Murine FasL on transfected murine L929 cells (murine, UniProt P41047 1-279)
T5 sequence (looked up): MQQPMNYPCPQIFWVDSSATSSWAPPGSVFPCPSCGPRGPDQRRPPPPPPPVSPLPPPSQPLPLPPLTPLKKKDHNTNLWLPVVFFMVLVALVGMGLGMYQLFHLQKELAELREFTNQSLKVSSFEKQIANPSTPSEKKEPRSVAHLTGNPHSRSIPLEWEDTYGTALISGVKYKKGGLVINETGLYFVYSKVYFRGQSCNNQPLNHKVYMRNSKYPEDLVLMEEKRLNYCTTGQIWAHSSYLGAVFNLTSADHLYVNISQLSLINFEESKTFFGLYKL

T6: sFas ligand (Alexis Corporation) with a FLAG epitope tag at its N-terminus (human, UniProt P48023 103-281)
T6 sequence (looked up): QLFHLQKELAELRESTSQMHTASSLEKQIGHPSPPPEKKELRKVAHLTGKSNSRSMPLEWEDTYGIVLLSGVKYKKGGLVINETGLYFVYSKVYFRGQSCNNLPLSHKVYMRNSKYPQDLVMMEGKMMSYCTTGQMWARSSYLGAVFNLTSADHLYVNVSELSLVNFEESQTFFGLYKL

B1: RANK-Fc (Fc fusion, UniProt Q9Y6Q6 30-212, looked up, not shown: a dimerising Fc or GST)
chain: IAPPCTSEKHYEHLGRCCNKCEPGKYMSSKCTTTSDSVCLPCGPDEYLDSWNEEDKCLLHKVCDTGKALVAVVAGNSTTPRRCACTAGYHWSQDCECCRRNTECAPGLGAQHPLQLNKDTVCKPCLAGYFSDAFSSTDKCRPWTNCTFLGKRVEHHGTEKSDAVCSSSLPARKPPNEPHVYLP
notes: extracellular domain
B2: TNFR1-Fc (Fc fusion, UniProt P19438 30-211, looked up, not shown: a dimerising Fc or GST)
chain: LVPHLGDREKRDSVCPQGKYIHPQNNSICCTKCHKGTYLYNDCPGPGQDTDCRECESGSFTASENHLRHCLSCSKCRKEMGQVEISSCTVDRDTVCGCRKNQYRHYWSENLFQCFNCSLCLNGTVHLSCQEKQNTVCTCHAGFFLRENECVSCSNCKKSLECTKLCLPQIENVKGTEDSGTT
notes: extracellular domain; also called TNFRLFc
B3: DcR1-Fc (Fc fusion, UniProt O14798 26-236, looked up, not shown: a dimerising Fc or GST)
chain: ATTARQEEVPQQTVAPQQQRHSFKGEECPAGSHRSEHTGACNPCTEGVDYTNASNNEPSCFPCTVCKSDQKHKSSCTMTRDTVCQCKEGTFRNENSPEMCRKCSRCPSGEVQVSNCTSWDDIQCVEEFGANATVETPAAEETMNTSPGTPAPAAEETMNTSPGTPAPAAEETMTTSPGTPAPAAEETMTTSPGTPAPAAEETMITSPGTPA
notes: extracellular domain
B4: AIM-II, full sequence, on stably transfected HEK 293 EBNA cells (ligand, UniProt O43557 1-240, looked up)
chain: MEESVVRPSVFVVDGQTDIPFTRLGRSHRRQSCSVARVGLGLLLLLMGAGLAVQGWFLLQLHWRLGEMVTRLPDGPAGSWEQLIQERRSHEVNPAAHLTGANSSLTGSGGPLLWETQLGLAFLRGLSYHDGALVVTKAGYYYIYSKVQLGGVGCPLGLASTITHGLYKRTPRYPEELELLVSQQSPCGRATSSSRVWWDSSFLGGVVHLEAGEKVVVRVLDERLVRLRDGTRSYFGAFMV
notes: whole, on cells
B5: Soluble human FLAG-FasL (synthesized at HGS) (ligand, UniProt P48023 130-281, looked up, not shown: small tags and cut ends)
chain: QIGHPSPPPEKKELRKVAHLTGKSNSRSMPLEWEDTYGIVLLSGVKYKKGGLVINETGLYFVYSKVYFRGQSCNNLPLSHKVYMRNSKYPQDLVMMEGKMMSYCTTGQMWARSSYLGAVFNLTSADHLYVNVSELSLVNFEESQTFFGLYKL
notes: called trimerized in the kinetic BIAcore run; cross-linked with FLAG antibody in the cell assays; also called FasL-Flag; trimerized FLAG-FasL
B6: AITR-Fc (Fc fusion, UniProt Q9Y5U5 26-162, looked up, not shown: a dimerising Fc or GST)
chain: QRPTGGPGCGPGRLLLGTGTDARCCRVHTTRCCRDYPGEECCSEWDCMCVQPEFHCGDPCCTTCRHHPCPPGQGVQSQGKFSFGFQCIDCASGTFSGGHEGHCKPWTDCTQFGFLTVFPGNKTHNAVCVPGSPPAEP
notes: extracellular domain
B7: DcR2-Fc (Fc fusion, UniProt Q9UBN6 56-211, looked up, not shown: a dimerising Fc or GST)
chain: ATIPRQDEVPQQTVAPQQQRRSLKEEECPAGSHRSEYTGACNPCTEGVDYTIASNNLPSCLLCTVCKSGQTNKSSCTTTRDTVCQCEKGSFQDKNSPEMCRTCRTGCPRGMVKVSNCTPRSDIKCKNESAASSTGKTPAAEETVTTILGMLASPYH
notes: extracellular domain
B8: TACI-Fc (extracellular domain of human TAC1, aa 1-159, fused to the Fc domain of human IgG1) (Fc fusion, UniProt O14836 1-159, looked up, not shown: a dimerising Fc or GST)
chain: MSGLGRSRRGGRSRVDQEERFPQGLWTGVAMRSCPEEQYWDPLLGTCMSCKTICNHQSQRTCAAFCRSLSCRKEQGKFYDHLLRDCISCASICGQHPKQCAYFCENKLRSPVNLPPELRRQRSGEVENNSDNSGRYQGLEHRGSEASPALPGLKLSADQ
notes: range 1-159; also called TAC1-Fc
B9: Extra-cellular portion of FasL (Oncogene Research Products), amino acids 103-281 (ligand, human, UniProt P48023 103-281, looked up)
chain: T6 sequence (looked up)
notes: range 103-281; Immobilised on a BIAcore chip (2020 RU); also called immobilized FasL
B10: TNFR-6 alpha-Fc fusion protein (full length TNFR-6 alpha, amino acids 1-300 of SEQ ID NO:2, fused to the Fc domain of human IgG1) (Fc fusion, not shown: a dimerising Fc or GST)
chain: T3 sequence
B11: OX40-Fc (Fc fusion, UniProt P43489 29-214, looked up, not shown: a dimerising Fc or GST)
chain: LHCVGDTYPSNDRCCHECRPGNGMVSRCSRSQNTVCRPCGPGFYNDVVSSKPCKPCTWCNLRSGSERKQLCTATQDTVCRCRAGTQPLDSYKPGVDCAPCPPGHFSPGDNQACKPWTNCTLAGKHTLQPASNSSDAICEDRDPPATQPQETQGPPARPITVQPTEAWPRTSQGPSTRPVEVPGGRA
notes: extracellular domain
B12: OPG-Fc (Fc fusion, UniProt O00300 22-201, looked up, not shown: a dimerising Fc or GST)
chain: ETFPPKYLHYDEETSHQLLCDKCPPGTYLKQHCTAKWKTVCAPCPDHYYTDSWHTSDECLYCSPVCKELQYVKQECNRTHNRVCECKEGRYLEIEFCLKHRSCPPGFGVVQAGTPERNTVCKRCPDGFFSNETSSKAPCRKHTNCSVFGLLLTQKGNATHDNICSGNSESTQKCGIDVTL
notes: extracellular domain

Assays:
[1] = target: T1, TNF-gamma-beta, full length, on …; test: flow cytometry on HEK293F cells expressing full length TNF-gamma-beta
Method: One million cells, in 0.1 ml of FACS buffer (PBS, 0.1% BSA, 0.1% NaN₃), were incubated with 0.1-1 microgram of protein or antibody at RT for 15 min. The cells were washed with 3 ml of FACS buffer, reacted with biotinylated primary antibody, and stained with PE-conjugated secondary antibody at RT for 15 min. Cells were then washed again, resuspended in 0.5 microgram/ml of propidium iodide, and live cells were gated and analyzed on a FACScan using the CellQuest software (BD Biosciences).

TNFR-6 alpha-(His) = target: T2, TNFR-6 alpha-(His); test: flow cytometry on AIM-II-transfected HEK 293 EBNA cells
[2] = target: T3, Full-length human TR6 (without Fc); test: BIAcore, FasL-Flag soluble
[3] = target: B10; test: BIAcore, TR6-Fc immobilized, trimerized FLAG-FasL soluble
[4] = target: T4, FLAG-tagged soluble form of …; test: coimmunoprecipitation with protein A-Sepharose, anti-Flag western blot
Text: The beads were then precipitated and washed extensively with PBST buffer (PBS, 0.5% Triton X-100) before boiled in SDS-sample buffer. Proteins were resolved on 4-20% Tris-Glycine gels (NOVEX), transferred to nitrocellulose membranes, and blotted with anti-Flag M2 monoclonal antibody (1 microgram/ml, Sigma) and horseradish peroxidase (HRP)-conjugated goat anti-mouse IgG antibody (0.5 microgram/ml).

[5] = target: B10; test: BIAcore
[6] = target: B5; test: cell-based or functional assay
[7] = target: T5, Murine FasL on transfected murine L929 …; test: cell-based or functional assay
[8] = target: T6, sFas ligand (Alexis Corporation) with a …; test: cell-based or functional assay

Row | Binder | binding result [1] | also measured
1 | B1 | no binding | –
2 | B2 | no binding | –
3 | B3 | no binding | –
4 | B4 | – | binding result (TNFR-6 alpha-(His)): binds
5 | B5 | – | Kd [2]: 17 nM; Kd [3]: 4.6 nM
6 | B6 | no binding | –
7 | B7 | no binding | –
8 | B8 | no binding | binding result [4]: no binding
9 | B9 | – | binding result [5]: binds
10 | B10 | – | potency against FasL-induced Jurkat cytotoxicity relative to Fas-Fc [6]: 100 fold; IC50 of inhibition of killing of A20 target cells by murine FasL-transfected L929 cells [7]: ~1 ng/mL; IC50 (read off the curve): TR6Fc concentration giving half rescue of Jurkat viability from sFasL 20 ng (Alamar blue, OD 570 nm - 630 nM) [8]: ~5 ng/mL
11 | B11 | no binding | –
12 | B12 | no binding | –
